Measured values reported in patent publication US12630594B2, “Allergy antigen and epitope for same” (HOYU CO., LTD., priority 2017, dated 2026).

B1: Desmin (fragment) (protein)
chain: ISSYRRTFGSGIGSTPGMSSMFSHGGRGSSGSAHMSSRVYEMTKSSARPSYSSGSIRSSSGGAMRSYAGMGEKLDFNLADATNRDFLDTRTNEKAELQHLNDRFASYIEKVRFLEQQNATLVVEIERLRGHEPTRVAEMYEEEMRELRRQVDGMSNDRARMEVERDNLADDLQKLKLRLQEVIHQREEAENNLSAFRADVDSATLARLDLERRIESLQEEITFLKKIHEEEIHELTSQMQETSVQVQMDMSKPDLTVALRDIRMQYEGIAAKNISEAEDWYKSKVSDLNQAVNKNNDALRQAKQESMEFRHQIQSYTCEIDSLKGTNESLLRQMREMEDRLGNEAGGYQDSVTRLEAEIAKMKDEMARHLREYQDLLNVKMALDIEIATYRKLLEGEESRITVSGSKSSHSGSHSAASLYSTVGFRETSPDVGRSAEVHSKKTVLIKTIETRDGEVVSE
modifications: Desmin (fragment)
B2: Myosin binding protein H-like (protein)
chain: MPAKPAPIKKAAPKEPAPKKEEAPAPAPAEAAPAEVAPPAEVEAPPAEAAPAEAAAPAEAAPTEEKAPAEPAPEQPKAPTPPPPDEPTSEPLEVTVDDKSDTSVTITWRPPKTIPANSGLDGYTVEITKEGTEDWKAANEDLTVSCRYVIKNQTTGDRLLIRVVAVNPGGRSPPATIADPVLVKEVGARPKVRLPRFLRQRYVKKVGEKINIVIPYSGKPKPVVSWLKDGQPLDSKRANIRTSDRDSILFIRQAERVDSGSYEMCVKVDDFEDKAAIIIQIIELPGPPASIKIVDVWGFNVALEWTVPKDNGNTEITGYTVQKADKKTGDWFNILEHYARLNATISDLIMGNTYTFRVFAENKCGLSEECAVTKGEATIVKEVIDYKPTPFVEHDFTEAPKFTTVLNDRSTTVGYSTKLLCSVRGCPKPKIMWMKNKMILNNMDNPKYRMISTGGICTLEIRKPGPYDGGEYVCRAENTLGKVDTGCKLEVRKPGQADADKDKKEQ
modifications: Myosin binding protein H-like
B3: Alpha-actinin-3 (protein)
chain: MTAIETQVQYGSYMTSEQVYMTQEDDWDRDLLLDPAWEKQQRKTFTAWCNSHLRKAGTQIENIEEDFRNGLKLMLLLEVISGERLPKPDKGKMRFHKIANVNKALDFICSKGVKLVSIGAEEIVDGNVKMTLGMIWTIILRFAIQDISVEETSAKEGLLLWCQRKTAPYRNVNVQNFHISWKDGLALCALIHRHRPDLIDYSKLRKDDPMGNLNTAFEVAEKYLDIPKMLDAEDIVNTPKPDEKAIMTYVSCFYHAFAGAEQAETAANRICKVLAVNQENEKLMEEYEKLASELLEWIRRTIPWLENRVAEQTMRAMQQKLEDFRDYRRVHKPPKVQEKCQLEINFNTLQTKLRLSNRPAFMPSEGKMVSDIANAWKGLEQVEKGYEEWLLTEIRRLERLDHLAEKFKQKSSLHESWTSGKVELLSMKDYESASLMEIRALMRKHEAFESDLAAHQDRVEQIAAIAQELNELDYHDAVTINARCQGICDQWDNLGTLTQKRRDSLERVEKLWETIDQLYLEFAKRAAPFNNWMDGAMEDLQDMFIVHSIEEIQSLITAHDQFKATLPEADKERVATMGIQNEIVKIAQTYGIKLSGVNPYTNLSPQDITDKWDAVKHLVPLRDQMLQEEVARQQSNERLRRQFAAQANIIGPWIQTKMEEISHVSVDIAGSLEEQMSNLKQYEQNIINYKCNIDKLEGDHQLSQESLIFDNKHTNYTMEHVRVGWEQLLTTIARTINEVENQILTRDAKGISQEQLNEFRASFNHFDRKRNGMMDPDDFRACLISMGYDLGEVEFARIMTLVDSNNTGVVTFQAFIDFMTRETAETDTADQVMASFKILASDKTYITVEELRRELPPEQADYCISRMTSYIGSGAPPGALDYISFSSALYGESDL
modifications: PREDICTED: alpha-actinin-3
B4: EEF1A2 binding protein-like (protein)
chain: MWKKKSKLTDQTATGQVGIKKRSKVPGVMITQYVEKIPDGKSHPDFTRKPIALTIQEGKFAFFKALVIGDPEPTVTWGRNNGDVSDTSKYVTKYDPATREHLFEMANVKPEQADTYKCFAANEFGRAVVTVVLNVIEVGFKKAQADSQVQPEAAVADFKSVLKRKSKIQPKMEKKEDGEIDPRFWELLISADKKDYESLMLEFGVTDFRFMLKTLNEIKKEREEEQAQFIENLANLKPIEVGPDGCATFSIDMDLIEQSSRIFLYKDGVMIPYSKELGDTIKHSLKIVGRKYQFSIRDLFPDDAGLYQVDVEDVNVFSTDFKIPMVDFLVKIQECKAMEREDAVFECVLSQPFGKIMWVGKNLPLEAGDKYDIEVSEDKLIHRLIIKDVAMVDKGIYAAVAGIKSCNAFLVVEADKGEPGKKKQRKTTRAGGAGVDLTAIAQEQAVKNTADREVLKEKVKAINDERAANATAAPETSAEAKAKVKVVEASQTGAPKQGPAVKGSDHKSVDNEGYSIKSGLSDVFALRGKKGELVCEMSHEVDGAWFKDGEKLSTTDGIAIVKDGTRHTMTIHSSSEDDTGVYHIEAGGFKSEAKVTVGELPAIDADDLHKFSKPVTIKVGQNASWKMPYTPQDNLEVKWFKDGKELKDGGGVKLVKEVKHSRLLLRECLRSDAGEIKIQLKNPFGTIEATSRLIVLDKPGPPEGPVEILETTSTVIELQWGAPKDDGGSPVTNYIIERQQLGQTVWKKMGDVAADKTTYRDRNVVHGKLYIYNIYAVNPEGTSDALQTEETMAGVLIFAGRPGAPKVVSASKTCINLKWEPPEDDGGIKIDGYQLEKRKKDTAQWIALNPVTEPIEVLEYAVKDVVEGAEYEFRVSAINVSGAGEFSLPSVMVTAKNPNMRPTFKDPEDFMVIRAGNSVRIKVLYEAEPPPEITWMKDNEPVSSFIQIINTEGCSQLVIPSTKRSDSGNYTIVAKNKVGEASFDIEVLVTDEPKPPGAVELEQIVHGKVIVSWEASPDQELDNRLYYMVAEHDSSTRMWHTVADRIFDNSYTANNIMPGREYHFKIYAKNDMGMSDPSMSPTWGINSNRIPINTNTPVEVSFEKPPSVLVPLKMHSPPKGFQMYMTCAIRGCPTPSVTWHLNNVCINGDSNYYITNSYGVCSMYILRVRPKDAGEYKVVAVNSFGKAECSTKLVVKD
modifications: EEF1A2 binding protein-like
B5: Alpha-1,4-glucan phosphorylase (protein)
chain: MSKPLSDHDRKKQISVRGLAGVENVAELKVAFNRHLHFTLVKDRNVASKRDYYFALANTVRDHLVGRWIRTQQYYYEKDPKRVYYISLEFYMGRTLQNTMVNLALENACDEAIYQLGLDMEELEDMEEDAGLGNGGLGRLAACFLDSMASLGLAAYGYGIRYEFGIFNQKIVNGWQVEEADDWLRYGNPWEKARPEYMRPVKFYGRTEHTPEGVKWVDTQVVLALPYDTPIPGYRNNIVNTMRLWSAKAPCDFNLKDFNVGGYIQAVLDRNLCENISRVLYPNDNFFEGKELRLKQEYFVVAATLQDIVRRFKASKFGSREIVRTDFAQLPNKVAIQLNDTHPAMAIPELMRVLVDEEKLEWDKAWDVCVRTCAYTNHTVLPEALERWPIDLFHHLLPRHLEIIYEINRRFLQYVASKFPGDNDRLRRMSLIEEGECKKVNMAHMCIVGSHAVNGVARIHSEILVATLFKDFYELDPHKFQNKTNGITPRRWLVMCNPGLAEVIAERIGEEFVRDLDQLKKLLKFIDDDAFIRDIAKVKQENKLKFAVHLEEHYKVKINPQSMFDFQVKRIHEYKRQLLNCLHMITYYNRIKKEPNKHWTPRTIMVGGKAAPGYHTAKMIIRLITAIGEVVNHDPVIGDRLKVIFLENYRVTLAEKAIPSADLSEQISTAGTEASGTGNMKFMLNGALTIGTMDGANVEMAEEAGEKNLFIFGMRVEEVDAMDAGKGYHASEYYNRIPELKQAMDQISGGFFSHKQPDLFKELVDLLMHHDRFKVFADYEAYIKSQDKVNELYKKPKEWTKMVIHNIAGCGKFSSDRTISQYAREIWGMEPSLEKIPAPDEQLK
modifications: Alpha-1,4 glucan phosphorylase

Test system: IgE antibody in the serum of a fish-allergic patient
Test: Immunoblotting of two-dimensional electrophoresis patterns of fish meat proteins with patient serum
Type: binding, human
Conditions: proteins contained in salmon meat; serum from fish-allergic patient 3 (FIG. 1B right)
Experimental: Proteins contained in fish were analyzed by the aforementioned technique to identify antigens of an allergy to fish. To be specific, proteins were extracted from fish meat and subjected to two-dimensional electrophoresis under the conditions described below.
The electrophoresis in the first dimension was isoelectric focusing, which was performed using isoelectric focusing gels with a gel-strip length of 5 to 10 cm and a gel pH range of 3 to 10. The pH gradient of the gels in the direction of electrophoresis was as follows: with the total gel-strip length being taken as 1, the gel-strip length up to pH 5 was “a=0.15 to 0.3”, the gel-strip length from pH 5 to 7 was “b=0.4 to 0.7”, and the gel-strip length above pH 7 was “c=0.15 to 0.3”. More specifically, the isoelectric focusing was performed using the IPG gels, Immobiline Drystrip (pH3-10NL), produced by GE Healthcare Bio-Sciences Corporation (hereinafter abbreviated as “GE”). The electrophoresis system used was IPGphor produced by GE. The maximum current of the electrophoresis system was limited to 75 μA per gel strip. The voltage program adopted to perform the first-dimensional isoelectric focusing was as follows: (1) a constant voltage step was performed at a constant voltage of 300 V until the volt-hours reached 750 Vhr (the current variation width during electrophoresis for 30 minutes before the end of this step was 5 μA); (2) the voltage was increased gradually to 1000 V for 300 Vhr; (3) the voltage was further increased gradually to 5000 V for 4500 Vhr; and then (4) the voltage was held at a constant voltage of 5000 V until the total Vhr reached 12000.
The electrophoresis in the second dimension was SDS-PAGE, which was performed using polyacrylamide gels whose gel concentration at the distal end in the direction of electrophoresis was set to 3 to 6% and whose gel concentration at the proximal end was set to a higher value than that at the distal end. More specifically, the SDS-PAGE was performed using NuPAGE 4-12% Bris-Tris Gels (IPG well, Mini, 1 mm) produced by Life Technologies. The electrophoresis system used was XCell SureLock Mini-Cell produced by Life Technologies. The electrophoresis was run at a constant voltage of 200 V for about 45 minutes using an electrophoresis buffer composed of 50 mM MOPS, 50 mM Tris base, 0.1% (w/v) SDS and 1 mM EDTA.
Identification of antigens by immunoblotting was carried out by taking all the steps up to the step of “Second-dimensional SDS-PAGE” as described above in Example 1, followed by the steps of “Transfer to membrane”, “Immunoblotting” and “Analysis” as described below.
To be specific, proteins in the second-dimensional electrophoresis gels were transferred to a membrane (PVDF membrane) according to the following procedure. • (1) The PVDF membrane was immersed in 100% methanol followed by milliQ water, and then moved into the transfer buffer to hydrophilize the PVDF membrane. • (2) After sponge, filter paper, the second-dimensional electrophoresis gels treated by second-dimensional SDS-PAGE, the hydrophilized PVDF membrane, filter paper, and sponge were put in place in this order, the transfer system was energized at a constant voltage of 30 V for one hour. Immunoblotting
Immunoblotting of the membrane was carried out using, as a primary antibody, a serum sample from patient 1 with a fish allergy or a serum sample from a non-fish-allergic subject. This fish-allergic patient 1 was a patient diagnosed with immediate-type allergy to fish. […]

Row | Molecule | spots detected by immunoblotting, different from spots with serum of non-fish-allergic subject
1 | B1 | detected
2 | B2 | detected

Same assay, conditions: spots in two-dimensional electrophoresis gel of proteins in fish; patients diagnosed with immediate-type allergy

Row | specific binding to IgE antibodies from fish-allergic patients | Molecule
3 | specific binding to IgE antibodies | B3
4 | specific binding to IgE antibodies | B1
5 | specific binding to IgE antibodies | B4
6 | specific binding to IgE antibodies | B5
7 | specific binding to IgE antibodies | B2
